Read-outs that look alike come from different tables or passages of the source.

Holding throughout (test): light chain exchange into myosin
Test [1] has as its target myosin from adult White Rock chicken pectoralis muscle (chicken) (UniProt P02609).
Test [2] shares this target. The source holds these as a separate data set.
Test [3] shares this target. This is another data set of the same source.
Test [4] shares this target. The source holds these as a separate data set.

“regulatory light chain LC2 singly labeled with fluorescein at Cys 125 (from UniProt P02609 1-168) (natural protein)”: the percent exchange worked out at 49% in test [1], 7% in test [2], 26% in test [3] and 84% in test [4].

These data come from paper PMC2115787.
